Publication PMC1540706 (2006)

B1: Eps15 P-short peptide [not stated] / human β2-appendage (700–937) used for ITC [human] (parent complex)
chain 1: SFGDGFADFSTL
chain 2: IGMAPGGYVAPKAVWLPAVKAKGLEISGTFTHRQGHIYMEMNFTNKALQHMTDFAIQFNKNSFGVIPSTPLAIHTPLMPNQSIDVSLPLNTLGPVMKMEPLNNLQVAVKNNIDVFYFSCLIPLNVLFVEDGKMERQVFLATWKDIPNENELQFQIKECHLNADTVSSKLQNNNVYTIAKRNVEGQDMLYQSLKLTNGIWILAELRIQPGNPNYTLSLKCRAPEVSQYIYQVYDSILKN
B2: β-arrestin P-long peptide [not stated] / human β2-appendage (700–937) used for ITC [human] (parent complex)
chain 1: DDDIVFEDFARQRLKGMKDD
chain 2: B1 chain 2
B3: 6× His human Eps15-MD (530–791) [human] / human β2-appendage (700–937) used for ITC [human] (parent complex)
chain 1: STSSSETANLNEHVEGQSNLESEPIHQESPARSSPELLPSGVTDENEVTTAVTEKVCSELDNNRHSKEEDPFNVDSSSLTGPVADTNLDFFQSDPFVGSDPFKDDPFGKIDPFGGDPFKGSDPFASDCFFRQSTDPFATSSTDPFSAANNSSITSVETLKHNDPFAPGGTVVAASDSATDPFASVFGNESFGGGFADFSTLSKVNNEDPFRSATSSSVSNVVITKNVFEETSVKSEDEPPALPPKIGTPTRPCPLPPGKRSI
chain 2: B1 chain 2

Variants of: B1
Experiment: ITC
Variant chain 2 Y189V has a Kd of 59 µM.

Variants of: B2
Experiment: ITC
chain 2 Y116A showed a Kd of 1.7 µM.

Variants of: B2
Experiment: ITC; stoichiometry (1.2)
chain 2 R180A was tested, and the Kd was 0.17 µM.

Variants of: B3
Experiment: ITC; stoichiometry (1.9)
chain 2 Y189V gave a Kd of 11 µM.
